Measured values reported in patent CN107417789A (INST RES BIOMEDICINE, dated 2017).

Molecular target: T1, X-31 (H3N2) 菠萝蛋白酶释放的HA (BHA) (influenza A virus X-31 (H3N2), UniProt P03437 17-344; P03437 346-520)
T1 construct: domain: 菠萝蛋白酶释放的HA (BHA)
Assay: complex formation and size exclusion chromatography

B1: FI6变体3 Fab片段 (Fab, V domains shown)
VH: QVQLVESGGGVVQPGRSLRLSCAASGFTFSTYAMHWVRQAPGKGLEWVAVISYDANYKYYADSVKGRFTISRDNSKNTLYLQMNSLRAEDTAVYYCAKDSQLRSLLYFEWLSQGYFDYWGQGTLVTVSS
VL: not shown
binding result: binds
